Measurements published in article PMC7335073, “Comprehensive structure-function characterization of DNMT3B and DNMT3A reveals distinctive de novo DNA methylation mechanisms” (Nature Communications, 2020).
Substitutions are numbered along the chain they refer to. Names may count otherwise.

B1: MTase domain of human DNMT3B (residues 562–853) (domain or fragment, UniProt Q9UBC3-1 562-853, looked up)
chain: KLYPAIPAARRRPIRVLSLFDGIATGYLVLKELGIKVGKYVASEVCEESIAVGTVKHEGNIKYVNDVRNITKKNIEEWGPFDLVIGGSPCNDLSNVNPARKGLYEGTGRLFFEFYHLLNYSRPKEGDDRPFFWMFENVVAMKVGDKRDISRFLECNPVMIDAIKVSAAHRARYFWGNLPGMNRPVIASKNDKLELQDCLEYNRIAKLKKVQTITTKSNSIKQGKNQLFPVVMNGKEDVLWCTELERIFGFPVHYTDVSNMGRGARQKLLGRSWSVPVIRHLFAPLKDYFACE
modifications: catalytic cysteine C651 covalently linked to the Zebularine of the DNA
notes: Two copies stand in the DNMT3L–DNMT3B–DNMT3B–DNMT3L heterotetramer; also called hDNMT3B; WT DNMT3B; source: E. coli BL21 DE3 (RIL), co-expressed with DNMT3L, purified (Ni-NTA, Heparin HP, SEC; after DNA cross-linking HiTrap Q XL, SEC); not shown: His6, N-terminal, cleaved; SUMO, N-terminal, cleaved
B2: K777A-mutated MTase domain of human DNMT3B (residues 562–853) (domain or fragment, UniProt Q9UBC3-1 562-853, looked up)
chain: B1 chain with K216A
modifications: catalytic cysteine C651 covalently linked to the Zebularine of the DNA
notes: also called K777A DNMT3B; source: E. coli BL21 DE3 (RIL), co-expressed with DNMT3L, purified (Ni-NTA, Heparin HP, SEC; after DNA cross-linking HiTrap Q XL, SEC); not shown: His6, N-terminal, cleaved; SUMO, N-terminal, cleaved

Target: the molecule itself
Experiment: crystal structure; covalent DNMT3B–DNMT3L–DNA complexes (25-mer Zebularine DNA: CGA, CGT or CAG) with SAH; proteins co-expressed in E. coli and purified as a complex; hanging-drop vapor diffusion, 0.1 M Tris-HCl pH 8.0, MgCl2, PEG, 0.2 mM AdoHcy, 4 °C or 16 °C

Row | Protein | binding result
1 | B1 | binds
2 | B2 | binds
